Test results taken from US20090137002A1 (published 2009).

Legend:
[1] = target: T1, myc-tagged human EphB4 on transfected CHO cells (human, UniProt P54760 16-987); assay: FACS, inhibition of murine ephrin-B2 binding to CHO-EphB4 cells
T1 construct: whole, on cells; also called CHO-EphB4; CHO-hEphB4; not shown: myc tag
T1 sequence (looked up): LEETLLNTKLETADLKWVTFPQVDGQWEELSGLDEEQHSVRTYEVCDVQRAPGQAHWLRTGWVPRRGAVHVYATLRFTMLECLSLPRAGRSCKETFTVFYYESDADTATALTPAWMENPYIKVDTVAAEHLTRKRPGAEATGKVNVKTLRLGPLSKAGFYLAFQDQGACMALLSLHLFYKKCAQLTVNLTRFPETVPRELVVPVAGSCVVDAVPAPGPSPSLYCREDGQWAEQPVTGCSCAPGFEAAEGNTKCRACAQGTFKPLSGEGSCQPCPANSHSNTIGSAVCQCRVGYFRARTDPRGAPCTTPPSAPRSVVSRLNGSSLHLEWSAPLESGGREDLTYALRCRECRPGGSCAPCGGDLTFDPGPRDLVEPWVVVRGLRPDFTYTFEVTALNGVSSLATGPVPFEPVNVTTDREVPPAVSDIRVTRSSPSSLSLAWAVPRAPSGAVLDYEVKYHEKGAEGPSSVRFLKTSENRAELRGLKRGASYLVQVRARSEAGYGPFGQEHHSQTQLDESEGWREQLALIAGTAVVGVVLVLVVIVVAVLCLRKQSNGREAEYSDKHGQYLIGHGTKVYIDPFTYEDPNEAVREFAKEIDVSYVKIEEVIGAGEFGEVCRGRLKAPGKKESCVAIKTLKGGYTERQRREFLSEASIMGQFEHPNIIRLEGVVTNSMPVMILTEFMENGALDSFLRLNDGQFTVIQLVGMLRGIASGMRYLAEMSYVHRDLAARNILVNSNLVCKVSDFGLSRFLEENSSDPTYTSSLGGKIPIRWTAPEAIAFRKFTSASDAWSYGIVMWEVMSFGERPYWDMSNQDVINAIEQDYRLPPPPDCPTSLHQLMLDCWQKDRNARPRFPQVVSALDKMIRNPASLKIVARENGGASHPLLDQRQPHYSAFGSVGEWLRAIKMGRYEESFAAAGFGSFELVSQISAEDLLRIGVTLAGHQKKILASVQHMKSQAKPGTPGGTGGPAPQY
Protocol: CHO-EphB4 cells were preincubated with matured Fab at different concentrations followed by addition of the ligand, murine ephrin-B2 (extracellular domain, 98% identity to human Ephrin-B2). Receptor-bound ephrin-B2 was then detected via biotinylated anti-mouse ephrin-B2 antibody (R&D Systems) and streptavidin-PE. […] The MOR07310 derivatives perform slightly better than the MOR03641 derivatives. The IC50 values of the x-cloned binders are in the same range as those of their cloning parentals.

[2] = target: T2, recombinant murine EphB4-Fc fusion protein (mouse, UniProt P54761 16-539); assay: SET (MSD), solution equilibrium titration; n = 1
T2 construct: extracellular domain; also called mEphB4; mu EphB4; not shown: Fc part, not described
T2 sequence (looked up): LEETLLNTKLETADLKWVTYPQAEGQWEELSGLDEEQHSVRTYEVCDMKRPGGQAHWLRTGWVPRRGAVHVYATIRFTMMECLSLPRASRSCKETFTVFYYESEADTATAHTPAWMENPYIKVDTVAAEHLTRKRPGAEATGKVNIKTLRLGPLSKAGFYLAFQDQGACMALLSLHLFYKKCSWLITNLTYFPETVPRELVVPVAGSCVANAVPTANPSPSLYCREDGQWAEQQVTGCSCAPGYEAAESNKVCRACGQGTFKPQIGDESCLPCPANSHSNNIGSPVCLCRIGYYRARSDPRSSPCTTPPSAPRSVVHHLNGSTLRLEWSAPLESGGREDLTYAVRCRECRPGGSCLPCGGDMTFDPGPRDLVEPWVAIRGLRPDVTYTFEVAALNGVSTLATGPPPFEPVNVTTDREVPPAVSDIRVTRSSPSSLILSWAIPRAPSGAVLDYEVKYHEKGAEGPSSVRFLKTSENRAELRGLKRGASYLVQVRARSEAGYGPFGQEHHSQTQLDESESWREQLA
Protocol: Two independent measurements were performed on human and murine EphB4-Fc.

rat EphB1 = target: T3, rat EphB1 (rat, UniProt P09759 18-538, limits assumed); assay: ELISA, well L15 [part 2]
T3 sequence (looked up): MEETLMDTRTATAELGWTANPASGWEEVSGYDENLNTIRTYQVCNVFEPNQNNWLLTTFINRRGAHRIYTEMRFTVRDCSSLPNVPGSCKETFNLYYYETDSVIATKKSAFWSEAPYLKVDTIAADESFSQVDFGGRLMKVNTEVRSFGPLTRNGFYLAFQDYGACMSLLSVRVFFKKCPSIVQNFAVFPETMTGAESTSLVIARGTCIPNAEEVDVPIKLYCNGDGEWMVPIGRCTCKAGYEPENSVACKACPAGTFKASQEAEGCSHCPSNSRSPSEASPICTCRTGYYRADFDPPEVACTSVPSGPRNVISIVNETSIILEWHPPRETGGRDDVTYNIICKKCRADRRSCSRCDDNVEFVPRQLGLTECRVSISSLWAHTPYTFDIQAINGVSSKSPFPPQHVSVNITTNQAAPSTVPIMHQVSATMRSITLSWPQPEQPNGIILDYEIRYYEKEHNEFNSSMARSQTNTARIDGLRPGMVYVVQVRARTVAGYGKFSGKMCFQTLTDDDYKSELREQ

recombinant mouse EphB2 = target: T4, recombinant mouse EphB2 (mouse, UniProt P54763 19-540, limits assumed); assay: ELISA, well M15 [part 2]
T4 construct: also called mEphB2
T4 sequence (looked up): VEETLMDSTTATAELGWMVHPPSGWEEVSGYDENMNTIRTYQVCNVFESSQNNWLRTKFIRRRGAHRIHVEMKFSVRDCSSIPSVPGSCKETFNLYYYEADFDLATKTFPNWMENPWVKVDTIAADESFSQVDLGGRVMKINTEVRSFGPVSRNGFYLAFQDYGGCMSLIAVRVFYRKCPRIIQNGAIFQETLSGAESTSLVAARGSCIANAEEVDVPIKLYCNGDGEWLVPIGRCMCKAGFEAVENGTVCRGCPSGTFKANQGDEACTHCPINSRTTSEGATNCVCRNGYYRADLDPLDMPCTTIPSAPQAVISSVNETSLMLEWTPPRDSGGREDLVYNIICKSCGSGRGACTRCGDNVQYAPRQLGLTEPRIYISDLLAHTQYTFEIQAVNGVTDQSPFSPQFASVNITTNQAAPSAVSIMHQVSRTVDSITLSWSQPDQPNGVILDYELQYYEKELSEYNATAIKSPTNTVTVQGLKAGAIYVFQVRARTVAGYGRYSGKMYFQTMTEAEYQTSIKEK

B1: MOR03641 Fab (Fab, V domains shown)
VH: QVQLVQSGAEVKKPGSSVKVSCKASGGTFSTYAISWVRQAPGQGLEWMGRIIPIFGTANYAQKFQGRVTITADESTSTAYMELSSLRSEDTAVYYCARSSYTILTTYYNYNAMDNWGQGTLVTVSS
VL: DIQMTQSPSSLSASVGDRVTITCRASQNINNFLNWYQQKPGKAPKLLIYGSSILQSGVPSRFSGSGSGTDFTLTISSLQPEDFAVYYCHQVSDTSDTFGQGTKVEIKR
notes: Monomeric HuCAL Fab (VH1A, kappa1), purified, MH-tagged; also called 3541 [sic]
- IC50 [1]: 4.7 nM

B2: MOR03640 Fab (Fab, V domains shown)
VH: QVQLVESGGGLVQPGGSLRLSCAASGFTFNNSWMSWVRQAPGKGLEWVSNITSSSSMTHYADSVKGRFTISRDNSKNTLYLQMNSLRAEDTAVYYCARKGMSFYNNKYAKSMFDLWGQGTLVTVSS
VL: DIELTQPPSVSVAPGQTARISCSGDNLGKKYVHWYQQKPGQAPVLVIYYDSKRPSGIPERFSGSNSGNTATLTISGTQAEDEADYYCSAWTTTMMHIVFGGGTKLTVLG
notes: Monomeric HuCAL Fab, purified, MH-tagged
- Kd [2]: 6.63 nM
- binding result (rat EphB1): no binding
- binding result (recombinant mouse EphB2): no binding
